One data set deals with T1, TbRPA1 DBD-AB (Trypanosoma brucei, UniProt Q384B5 1-257).
T1 sequence: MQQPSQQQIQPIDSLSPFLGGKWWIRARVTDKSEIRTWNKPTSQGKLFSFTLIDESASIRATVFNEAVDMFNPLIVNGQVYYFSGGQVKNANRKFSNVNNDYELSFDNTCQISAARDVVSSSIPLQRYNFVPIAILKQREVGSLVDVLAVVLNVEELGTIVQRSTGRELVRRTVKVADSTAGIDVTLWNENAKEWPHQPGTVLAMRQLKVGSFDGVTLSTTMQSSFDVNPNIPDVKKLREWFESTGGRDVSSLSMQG
Description: MST; 20 mM Tris pH 7.5, 10 mM NaCl, 10 mM MgCl2, 2 mM DTT, 10% glycerol, 0.1 mg/ml BSA, 15 min, room temperature; EMSA 2 nM probe (gel at 4 C), MST 10 nM probe. The note with it: protein: recombinant; tags: N-term 6xHis (pET28a); label: 5' Cy5 (MST) or 5' IRDye800 (EMSA); single strand. (Mobility shift assays separate free from complexed probe on a gel.)

The next data set has as its target HsRPA1 DBD-AB (Homo sapiens, UniProt P27694 181-427). Described as above. Particulars: protein: recombinant; tags: 6xHis (pET28a); label: 5' Cy5 (MST) or 5' IRDye800 (EMSA); single strand.
The target in another data set is TbRPA1 DBD-AB S105T (Trypanosoma brucei, UniProt Q384B5 1-257, S105T). The data set is described as above. The note with it: protein: recombinant; tags: N-term 6xHis; label: 5' Cy5 (MST) or 5' IRDye800 (EMSA); single strand.
The target in another data set is TcRPA1 DBD-AB T105S (Trypanosoma cruzi, UniProt Q4DXC9 2-257, T105S). The description is as above. The note with it: protein: recombinant; tags: N-term 6xHis; label: 5' Cy5 (MST) or 5' IRDye800 (EMSA); single strand.
The next data set addresses TbRPA1 DBD-AB W188A (Trypanosoma brucei, UniProt Q384B5 1-257, W188A). Description: EMSA, MST; 20 mM Tris pH 7.5, 10 mM NaCl, 10 mM MgCl2, 2 mM DTT, 10% glycerol, 0.1 mg/ml BSA, 15 min, room temperature; EMSA 2 nM probe (gel at 4 C), MST 10 nM probe. Particulars: protein: recombinant; tags: N-term 6xHis; label: 5' Cy5 (MST) or 5' IRDye800 (EMSA); single strand.
A further data set addresses TbRPA1 DBD-AB F64A (Trypanosoma brucei, UniProt Q384B5 1-257, F64A). The description is as above. The note with it: protein: recombinant; tags: N-term 6xHis; label: 5' Cy5 (MST) or 5' IRDye800 (EMSA); single strand.

Sequence of HsRPA1 DBD-AB (P27694 181-427): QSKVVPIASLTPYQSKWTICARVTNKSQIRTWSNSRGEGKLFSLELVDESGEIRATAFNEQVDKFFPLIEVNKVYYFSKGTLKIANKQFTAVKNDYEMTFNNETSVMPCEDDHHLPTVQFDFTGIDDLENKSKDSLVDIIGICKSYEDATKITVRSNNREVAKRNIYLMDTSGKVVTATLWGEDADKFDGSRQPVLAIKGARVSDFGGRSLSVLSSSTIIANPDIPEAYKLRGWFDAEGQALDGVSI

With TTTTTTTTTTTTTTTTTTTT (ssDNA) [dT20], the dissociation constant Kd with TbRPA1 DBD-AB was 30.5 nM.

Regarding TTTTTTTTTTTTTTTTTTTTTTTTTTTTTTTT (ssDNA) [dT32], the Kd with HsRPA1 DBD-AB came to 48 ± 37.4 nM; in the data set with TbRPA1 DBD-AB S105T it was 21.9 ± 2.7 nM; with TbRPA1 DBD-AB, 24.6 ± 12.4 nM; with TcRPA1 DBD-AB T105S it was 52.4 ± 27.9 nM. For the same molecule, the binding result with TbRPA1 DBD-AB W188A and with TbRPA1 DBD-AB F64A was “no binding” in each case.

In general, Kd refers to the constant that tells how readily two partners part at equilibrium.

The values are drawn from publication PMC10359466.
